From US20260070975A1 come the findings set out here.

The assay has as its target c-Kit expressed on the cell surface of M-07e cells (human) (UniProt P10721). As to the kind of experiment: flow cytometry on M-07e cells. On the technique in general: A flow cytometer gives signals particle by particle.

Sequence of c-Kit expressed on the cell surface of M-07e cells (human) (P10721 26-976): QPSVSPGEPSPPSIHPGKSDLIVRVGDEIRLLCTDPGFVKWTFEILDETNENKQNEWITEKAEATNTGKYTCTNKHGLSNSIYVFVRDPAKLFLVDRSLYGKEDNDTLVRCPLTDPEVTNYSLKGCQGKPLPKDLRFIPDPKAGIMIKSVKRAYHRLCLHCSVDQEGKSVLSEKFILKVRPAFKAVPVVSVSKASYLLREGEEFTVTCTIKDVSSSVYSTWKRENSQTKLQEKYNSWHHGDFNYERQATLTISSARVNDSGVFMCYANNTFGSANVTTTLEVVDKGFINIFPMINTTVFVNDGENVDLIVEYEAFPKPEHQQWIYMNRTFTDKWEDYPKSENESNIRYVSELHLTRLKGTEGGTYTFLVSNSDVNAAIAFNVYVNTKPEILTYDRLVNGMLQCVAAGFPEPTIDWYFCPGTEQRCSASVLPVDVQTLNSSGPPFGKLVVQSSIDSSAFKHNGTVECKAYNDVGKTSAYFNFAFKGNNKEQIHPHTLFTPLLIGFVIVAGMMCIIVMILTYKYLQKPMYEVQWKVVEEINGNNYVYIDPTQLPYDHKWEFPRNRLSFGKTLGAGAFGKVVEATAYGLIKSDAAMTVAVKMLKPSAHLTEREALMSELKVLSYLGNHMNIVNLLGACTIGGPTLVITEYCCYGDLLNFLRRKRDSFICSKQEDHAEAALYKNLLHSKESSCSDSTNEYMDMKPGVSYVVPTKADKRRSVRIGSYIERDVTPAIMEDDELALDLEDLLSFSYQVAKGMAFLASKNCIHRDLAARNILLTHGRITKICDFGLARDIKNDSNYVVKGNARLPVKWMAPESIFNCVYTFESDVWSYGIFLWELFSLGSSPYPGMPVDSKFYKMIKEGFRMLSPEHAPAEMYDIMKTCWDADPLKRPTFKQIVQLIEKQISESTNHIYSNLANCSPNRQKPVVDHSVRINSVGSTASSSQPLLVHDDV

In turn, hIgG1 control (antibody) came in with a Measuring Fluorescent Intensity (MFI) of 85 MFI and a Percent Positive for c-Kit on M-07e cells of 2.3%.
